{"source": "paper PMC3963902", "about": "“Esterase LpEst1 from Lactobacillus plantarum: A Novel and Atypical Member of the αβ Hydrolase Superfamily of Enzymes” (PLoS ONE, 2014)", "key": {"[1]": {"substrate": "CC(=O)Oc1ccc([N+](=O)[O-])cc1", "test": "spectrophotometric p-nitrophenol release", "format": "biochemical, Lactiplantibacillus plantarum", "details": "50 mM sodium phosphate, pH 7.0, 30 °C", "text": "(§1) spectrophotometric p-nitrophenol release on LpEst1"}, "[2]": {"substrate": "CCCC(=O)Oc1ccc([N+](=O)[O-])cc1", "test": "spectrophotometric p-nitrophenol release", "format": "biochemical, Lactiplantibacillus plantarum", "details": "50 mM sodium phosphate, pH 7.0, 30 °C", "text": "as §1"}}}
{"protein": "LpEst1 (Lactiplantibacillus plantarum) (protein, homodimer) MPTINSIQTTVNGVVKIVKPFNNDIAGEQFDPHVLQTLTAFKQPAILENDLAALRSGSLTPAIADPVGDAVTVQSRNITALNRTVSVEWLTPQNVINHTVLVYFHGGAFYGGVPGNNTVLLKLVAAKSHCEILNVDYSLAPEAPAPAGILDGLAIFQYLEQRDAETMITVAGDSAGANVIMAATNLNQQLGSNRINQQLLLYPVTAPNADHAGPLWDLAAFPIIDSQRAILTNYHDLFRQLDSIMTDYYVPENFDSHSPLISPLHQENFTMTPPTTIMVGEFDPFRPQAWAYAQRLAAADTATTFIQYQGLNHAFAPLVDQYWQSQDVAQVMAAALI", "values": [{"measurement": "Km", "setting": "[1]", "value": "380 ± 50", "unit": "µM"}, {"measurement": "Vmax", "setting": "[1]", "value": 75, "unit": "µmol/min/mg"}, {"measurement": "kcat", "setting": "[1]", "value": "40.4 ± 2", "unit": "s⁻¹"}, {"measurement": "Km", "setting": "[2]", "value": "200 ± 100", "unit": "µM"}, {"measurement": "Vmax", "setting": "[2]", "value": 8, "unit": "µmol/min/mg"}, {"measurement": "kcat", "setting": "[2]", "value": "4.4 ± 0.3", "unit": "s⁻¹"}]}
